Target: complement component C3 (human) (human, UniProt P01024 23-1663)
Assay: cell-based or functional assay

B1: (CA28-AEEAc)8-PEG40k (peptide)
peptide: ICVWQDWGAHRCTK
modifications: N-terminal acetyl; (1Me)Trp at position 4; disulfide Cys2-Cys12; AEEAc between Thr13 and Lys; C-terminal amide; Lys side chain coupled to an arm of an eight-arm 40 kD PEG (NOF SUNBRIGHT HGEO-400GS)
**Q.** Which “IC50, classical complement inhibition assay (C3b deposition ELISA), as a function of CA28 moiety concentration” value does the source give for B1 here?
**A.** 1930 nM

From patent US20160215020A1 (published 2016)
